Results published in patent US20170362286A1.
No end group written: not given here.

Biological target: mKv1.3 (murine voltage-gated potassium channel Kv1.3) (mouse) (UniProt P16390)
Assay: cell-based or functional assay

Chain of mKv1.3 (murine voltage-gated potassium channel Kv1.3) (mouse) (P16390 whole entry): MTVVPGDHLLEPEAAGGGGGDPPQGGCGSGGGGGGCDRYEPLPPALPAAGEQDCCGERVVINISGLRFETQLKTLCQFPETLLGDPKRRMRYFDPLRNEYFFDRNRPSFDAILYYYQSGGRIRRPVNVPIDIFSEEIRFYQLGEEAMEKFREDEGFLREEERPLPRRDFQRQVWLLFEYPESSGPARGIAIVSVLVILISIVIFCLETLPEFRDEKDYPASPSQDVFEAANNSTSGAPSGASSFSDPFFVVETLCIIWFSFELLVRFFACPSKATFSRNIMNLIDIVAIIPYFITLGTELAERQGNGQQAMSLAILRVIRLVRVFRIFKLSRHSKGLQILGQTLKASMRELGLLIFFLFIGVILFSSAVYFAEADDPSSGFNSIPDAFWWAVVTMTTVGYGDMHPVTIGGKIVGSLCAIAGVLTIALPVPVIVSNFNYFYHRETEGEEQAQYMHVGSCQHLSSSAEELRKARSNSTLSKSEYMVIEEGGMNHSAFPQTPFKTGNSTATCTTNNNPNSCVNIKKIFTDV

What does the source list for EWSSRSCIDTIPKSRCTAFQCKHSMKYRLSFCRKTCGTC (not fully specified; ends and bridges not checked) [[EWSS]ShK]?
IC50, potency against Kv1.3 channels (patch clamp): 33 pM; Selectivity (for Kv1.3 over Kv1.1, ratio of IC50s): 158 fold
